Measured values: article PMC10397247
Blank lines part the entries; values can stand above or below the binder they belong to.

Tests used:
Experiment in all cases: two-hybrid library CCNG1;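 note: natural log of median RNA to DNA barcode read ratio; higher means stronger binding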
4H741-bN = biological target: T1, 4H741-bN
T1 chain: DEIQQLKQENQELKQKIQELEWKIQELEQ

O2-bS = biological target: T2, O2-bS
T2 chain: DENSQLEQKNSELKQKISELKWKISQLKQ

4H3961-bA = biological target: T3, 4H3961-bA; conditions: mean of both orientations
T3 chain: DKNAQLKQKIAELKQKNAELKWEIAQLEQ

4H470-bA = biological target: T4, 4H470-bA
T4 chain: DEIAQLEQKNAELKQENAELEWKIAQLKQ

4H2697-bH = biological target: T5, 4H2697-bH
T5 chain: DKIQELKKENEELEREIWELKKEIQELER

4H3189-bH = biological target: T6, 4H3189-bH
T6 chain: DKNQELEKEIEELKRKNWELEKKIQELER

4H331-bH = biological target: T7, 4H331-bH
T7 chain: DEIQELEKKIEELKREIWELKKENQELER

4H3606-bH = biological target: T8, 4H3606-bH
T8 chain: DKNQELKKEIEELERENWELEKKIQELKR

4H370-bH = biological target: T9, 4H370-bH
T9 chain: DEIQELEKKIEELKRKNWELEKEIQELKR

4H3782-bH = biological target: T10, 4H3782-bH
T10 chain: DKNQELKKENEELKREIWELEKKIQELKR

4H3843-bH = biological target: T11, 4H3843-bH
T11 chain: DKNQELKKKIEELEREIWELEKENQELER

4H4001-bH = biological target: T12, 4H4001-bH
T12 chain: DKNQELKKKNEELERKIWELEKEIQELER

4H462-bH = biological target: T13, 4H462-bH
T13 chain: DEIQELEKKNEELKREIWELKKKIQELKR

4H568-bH = biological target: T14, 4H568-bH
T14 chain: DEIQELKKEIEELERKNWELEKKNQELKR

4H607-bH = biological target: T15, 4H607-bH
T15 chain: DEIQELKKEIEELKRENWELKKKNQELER

4H687-bH = biological target: T16, 4H687-bH
T16 chain: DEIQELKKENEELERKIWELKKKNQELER

4H72-bH = biological target: T17, 4H72-bH
T17 chain: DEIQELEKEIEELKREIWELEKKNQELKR

4H797-bH = biological target: T18, 4H797-bH
T18 chain: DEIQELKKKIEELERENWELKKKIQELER

4H883-bH = biological target: T19, 4H883-bH
T19 chain: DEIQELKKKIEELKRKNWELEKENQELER

4H918-bH = biological target: T20, 4H918-bH
T20 chain: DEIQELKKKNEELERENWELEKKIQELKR

4H953-bH = biological target: T21, 4H953-bH
T21 chain: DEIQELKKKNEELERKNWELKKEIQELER

4H967-bH = biological target: T22, 4H967-bH
T22 chain: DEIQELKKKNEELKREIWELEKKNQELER

O4-bS = biological target: T23, O4-bS
T23 chain: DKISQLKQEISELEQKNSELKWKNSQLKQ

O5-bS = biological target: T24, O5-bS
T24 chain: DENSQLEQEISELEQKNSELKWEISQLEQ

O6-bS = biological target: T25, O6-bS
T25 chain: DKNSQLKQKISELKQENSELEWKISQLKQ

O7-bS = biological target: T26, O7-bS
T26 chain: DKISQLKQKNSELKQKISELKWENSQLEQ

O8-bS = biological target: T27, O8-bS
T27 chain: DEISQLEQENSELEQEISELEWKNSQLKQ

O9-bS = biological target: T28, O9-bS
T28 chain: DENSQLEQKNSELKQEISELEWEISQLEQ

4H3112-bN = biological target: T29, 4H3112-bN
T29 chain: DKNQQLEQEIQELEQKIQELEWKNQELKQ

4H3129-bH = biological target: T30, 4H3129-bH
T30 chain: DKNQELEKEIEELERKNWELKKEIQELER

4H3172-bN = biological target: T31, 4H3172-bN
T31 chain: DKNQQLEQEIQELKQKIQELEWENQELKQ

4H3185-bN = biological target: T32, 4H3185-bN
T32 chain: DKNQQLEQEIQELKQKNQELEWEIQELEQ

4H331-bN = biological target: T33, 4H331-bN
T33 chain: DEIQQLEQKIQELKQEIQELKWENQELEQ

4H3354-bN = biological target: T34, 4H3354-bN
T34 chain: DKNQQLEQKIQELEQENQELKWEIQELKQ

4H338-bN = biological target: T35, 4H338-bN
T35 chain: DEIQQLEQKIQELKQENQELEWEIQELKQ

4H3427-bN = biological target: T36, 4H3427-bN
T36 chain: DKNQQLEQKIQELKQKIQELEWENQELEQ

4H346-bN = biological target: T37, 4H346-bN
T37 chain: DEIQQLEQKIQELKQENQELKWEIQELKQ

4H3782-bN = biological target: T38, 4H3782-bN
T38 chain: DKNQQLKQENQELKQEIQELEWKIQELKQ

4H3817-bH = biological target: T39, 4H3817-bH
T39 chain: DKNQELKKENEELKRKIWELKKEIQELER

4H3855-bN = biological target: T40, 4H3855-bN
T40 chain: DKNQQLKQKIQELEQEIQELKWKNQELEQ

4H3926-bN = biological target: T41, 4H3926-bN
T41 chain: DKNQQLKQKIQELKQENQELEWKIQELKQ

4H4001-bN = biological target: T42, 4H4001-bN
T42 chain: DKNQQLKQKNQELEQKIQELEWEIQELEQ

4H4073-bN = biological target: T43, 4H4073-bN
T43 chain: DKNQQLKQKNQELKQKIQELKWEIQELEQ

4H454-bN = biological target: T44, 4H454-bN
T44 chain: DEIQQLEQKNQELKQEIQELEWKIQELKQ

4H457-bN = biological target: T45, 4H457-bN
T45 chain: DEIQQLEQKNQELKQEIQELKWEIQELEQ

4H568-bN = biological target: T46, 4H568-bN
T46 chain: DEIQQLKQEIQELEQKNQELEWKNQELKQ

4H575-bN = biological target: T47, 4H575-bN
T47 chain: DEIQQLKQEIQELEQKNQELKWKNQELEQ

4H607-bN = biological target: T48, 4H607-bN
T48 chain: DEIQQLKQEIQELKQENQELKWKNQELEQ

4H683-bN = biological target: T49, 4H683-bN
T49 chain: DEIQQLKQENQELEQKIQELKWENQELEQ

4H687-bN = biological target: T50, 4H687-bN
T50 chain: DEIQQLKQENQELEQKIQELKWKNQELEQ

4H717-bN = biological target: T51, 4H717-bN
T51 chain: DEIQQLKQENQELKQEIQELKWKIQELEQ

4H72-bN = biological target: T52, 4H72-bN
T52 chain: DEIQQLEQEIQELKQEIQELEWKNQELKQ

4H754-bN = biological target: T53, 4H754-bN
T53 chain: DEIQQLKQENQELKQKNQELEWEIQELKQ

4H780-bN = biological target: T54, 4H780-bN
T54 chain: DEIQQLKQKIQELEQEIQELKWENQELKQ

4H797-bN = biological target: T55, 4H797-bN
T55 chain: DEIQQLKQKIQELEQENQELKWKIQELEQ

4H855-bN = biological target: T56, 4H855-bN
T56 chain: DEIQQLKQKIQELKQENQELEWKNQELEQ

4H883-bN = biological target: T57, 4H883-bN
T57 chain: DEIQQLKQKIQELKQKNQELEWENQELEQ

4H908-bN = biological target: T58, 4H908-bN
T58 chain: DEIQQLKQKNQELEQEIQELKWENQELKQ

4H918-bN = biological target: T59, 4H918-bN
T59 chain: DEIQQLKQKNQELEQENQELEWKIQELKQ

4H953-bN = biological target: T60, 4H953-bN
T60 chain: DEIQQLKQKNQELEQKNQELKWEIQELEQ

4H967-bN = biological target: T61, 4H967-bN
T61 chain: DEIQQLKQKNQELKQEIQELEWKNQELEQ

4H968-bN = biological target: T62, 4H968-bN
T62 chain: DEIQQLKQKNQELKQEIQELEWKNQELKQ

4H2692-bH = biological target: T63, 4H2692-bH
T63 chain: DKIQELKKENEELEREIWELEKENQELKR

4H2717-bH = biological target: T64, 4H2717-bH
T64 chain: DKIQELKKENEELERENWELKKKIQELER

4H2839-bH = biological target: T65, 4H2839-bH
T65 chain: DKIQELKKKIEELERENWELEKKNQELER

4H2915-bH = biological target: T66, 4H2915-bH
T66 chain: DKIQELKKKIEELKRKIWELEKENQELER

4H3057-bH = biological target: T67, 4H3057-bH
T67 chain: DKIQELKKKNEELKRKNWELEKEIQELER

4H319-bH = biological target: T68, 4H319-bH
T68 chain: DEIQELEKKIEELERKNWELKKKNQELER

4H3277-bH = biological target: T69, 4H3277-bH
T69 chain: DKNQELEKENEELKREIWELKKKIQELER

4H348-bH = biological target: T70, 4H348-bH
T70 chain: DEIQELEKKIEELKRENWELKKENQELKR

4H40-bH = biological target: T71, 4H40-bH
T71 chain: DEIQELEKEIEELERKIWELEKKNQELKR

4H477-bH = biological target: T72, 4H477-bH
T72 chain: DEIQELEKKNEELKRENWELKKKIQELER

4H492-bH = biological target: T73, 4H492-bH
T73 chain: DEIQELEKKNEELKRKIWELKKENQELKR

4H741-bH = biological target: T74, 4H741-bH
T74 chain: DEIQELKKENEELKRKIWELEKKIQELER

B1: 4H741-bN (peptide)
chain: DEIQQLKQENQELKQKIQELEWKIQELEQ
interaction score (4H741-bN): 1.19
interaction score (O2-bS): -3.38

B4: O2-bS (peptide)
chain: DENSQLEQKNSELKQKISELKWKISQLKQ
interaction score (O2-bS): -0.754
interaction score (O4-bS): -1.49
interaction score (O5-bS): -2.56
interaction score (O6-bS): -1.1
interaction score (O7-bS): -0.412
interaction score (O8-bS): -2.49
interaction score (O9-bS): -1.59

B6: 4H470-bA (peptide)
chain: DEIAQLEQKNAELKQENAELEWKIAQLKQ
interaction score (4H470-bA): 0.201

Now from value to binder:

interaction score (4H3961-bA): -1.09
interaction score (4H470-bA): -0.153
B2: 4H3961-bA (peptide)
chain: DKNAQLKQKIAELKQKNAELKWEIAQLEQ

interaction score (4H2697-bH): 0.402
interaction score (4H3189-bH): -0.0723
interaction score (4H331-bH): 0.0266
interaction score (4H3606-bH): -1.34
interaction score (4H370-bH): -0.895
interaction score (4H3782-bH): 0.502
interaction score (4H3843-bH): -0.103
interaction score (4H4001-bH): -0.578
interaction score (4H462-bH): -0.915
interaction score (4H568-bH): -1.4
interaction score (4H607-bH): -0.619
interaction score (4H687-bH): -0.768
interaction score (4H72-bH): -1.97
interaction score (4H797-bH): -0.611
interaction score (4H883-bH): -0.628
interaction score (4H918-bH): -0.619
interaction score (4H953-bH): -0.201
interaction score (4H967-bH): 0.26
B3: 4H2697-bH (peptide)
chain: DKIQELKKENEELEREIWELKKEIQELER

interaction score (4H3112-bN): -0.426
interaction score (4H3129-bH): -0.762
interaction score (4H3172-bN): 0.00481
interaction score (4H3185-bN): -1.11
interaction score (4H331-bN): -0.918
interaction score (4H3354-bN): 0.377
interaction score (4H338-bN): -0.816
interaction score (4H3427-bN): 0.996
interaction score (4H346-bN): 0.282
interaction score (4H3782-bN): -0.541
interaction score (4H3817-bH): -0.521
interaction score (4H3855-bN): -0.962
interaction score (4H3926-bN): 0.154
interaction score (4H4001-bN): -0.255
interaction score (4H4073-bN): -0.28
interaction score (4H454-bN): 0.745
interaction score (4H457-bN): -0.526
interaction score (4H568-bN): 0.078
interaction score (4H575-bN): -1.34
interaction score (4H607-bN): 0.634
interaction score (4H683-bN): 0.347
interaction score (4H687-bN): -1.66
interaction score (4H717-bN): -1.88
interaction score (4H72-bN): -0.5
interaction score (4H754-bN): -1.34
interaction score (4H780-bN): -0.0911
interaction score (4H797-bN): -0.676
interaction score (4H855-bN): 0.606
interaction score (4H883-bN): 1.54
interaction score (4H908-bN): 0.308
interaction score (4H918-bN): 0.0994
interaction score (4H953-bN): 0.0741
interaction score (4H967-bN): -1.11
interaction score (4H968-bN): -0.158
B5: 4H3112-bN (peptide)
chain: DKNQQLEQEIQELEQKIQELEWKNQELKQ

interaction score (4H2692-bH): 0.733
interaction score (4H2717-bH): -0.125
interaction score (4H2839-bH): -0.447
interaction score (4H2915-bH): 0.971
interaction score (4H3057-bH): -0.0522
interaction score (4H319-bH): -1.1
interaction score (4H3277-bH): -0.368
interaction score (4H348-bH): -0.787
interaction score (4H40-bH): 0.218
interaction score (4H477-bH): -0.436
interaction score (4H492-bH): 1.54
interaction score (4H741-bH): -1.04
B7: 4H2692-bH (peptide)
chain: DKIQELKKENEELEREIWELEKENQELKR
